Reference: the supplement of paper PMC9876800

Tested on: peptide library, one residue held at a place counted from the S/T acceptor
Assay: relative phosphorylation of the sub-library (ratio to the mean residue at this position); higher = residue favoured
In short: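 Purified recombinant kinases were reacted in 384-well plates with biotinylated degenerate peptide sub-libraries, each having one residue fixed at one position around a central Ser/Thr. The reaction mix contained 50 μM peptide plus 50 μM ATP spiked with γ-32P-ATP and ran for 90 min under kinase-specific conditions. Relative sub-library phosphorylation, taken from densitometry of phosphorimaged streptavidin membrane spots, is a ratio to the mean residue at that position.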

RPS6KA5, construct: Full length, human (from UniProt O75582)
relative phosphorylation
Conditions	A fixed	D fixed	E fixed	F fixed	G fixed	H fixed	I fixed	K fixed	L fixed	M fixed
at +1	0.772	0.723	0.84	1.44	0.633	1.04	1.48	0.616	1.32	1.49
at +2	0.9	2.19	1.43	0.986	0.826	1.59	0.676	0.436	0.95	0.781
at +3	0.834	1.3	1.27	1.12	0.988	1.35	0.738	0.674	1.09	0.981
at +4	0.825	1.63	1.62	0.863	1	1.23	0.713	0.588	0.777	0.788
at -1	0.783	0.877	0.544	0.767	0.855	1.16	0.435	1.57	1.07	–
at -2	0.787	0.316	0.306	0.4	0.675	1.06	0.272	1.8	0.444	–
at -3	0.718	0.294	0.314	0.352	0.499	1.18	0.286	1.18	0.293	–
at -4	0.981	0.639	0.757	0.778	1.31	1.18	0.694	1.34	0.807	–
at -5	1.04	0.65	0.597	0.91	1.18	1.03	0.779	1.2	1.03	–
